Measured values as given in paper PMC3827234.

Biological target: hamster integrin αv subunit, endogenous in CHO cells (Chinese hamster (endogenous in CHO))
Assay: flow cytometry on cells; CHO cells transiently transfected with the β3 plasmid alone, harvested after 48 h; the chimeric complex of human β3 and hamster αv on the cell surface was stained with FITC anti-αvβ3 (LM609; Figure 2C) or with the monoclonal antibody to β3 (Figure 2D); read-out is the percentage of positive cells

“integrin β3 subunit with the Pro189Ser substitution (P163S in the mature protein) (from UniProt P05106 27-788) (receptor)” was tested, and the percent of the level of the WTβ3-hamster αv complex (LM609 staining) was 78%.
